Experimental data as given in patent US20180216138.

Target: ferredoxin (CA_C0303) from Clostridium acetobutylicum

B1: Ferredoxin-NADP+ reductase from Clostridium acetobutylicum encoded by CA_C0764 (protein)
chain: MDNPNLLSEEANRCLLCKNPRCKANCPINTPIPEIISLYKEGKIMEAGEILFNNNPLSVICSLVCIHEDQCKGNCVRGIKSEPIKFHEIEEEISEKYLKEAKLKNVQKDKDRIAIVGGGPAGITVAFVLANKGYNVTIFEAHDKIGGVLRYGIPEYRLTKKLVDKLEERLIEVGVKIRPNTVIGPVISLDRLLEDSYKAVFIGTGVWNPKTLDVKGETLGNVHFAIDYLKSPESYRLGKKVAVIGAGNVAMDAARTAKRNGAEVTILYRKSFNEMPASKQEIRETKEDGVEFKLFRAPIEITEEGIKVAFTENVTDAEGKIRTKIIEGKEEFFECDSVVVAVSQAPKDNIVSNTTGLDTKWGLIVTDEKGNTTKKGTFACGDVVTGAKTVVEAAAQAKVVAETIDEYCKNN
- Ferredoxin NADP+ reductase specific activity: 9.5 U/mg protein
